Experimental findings from patent CN107042091A are described below.

Experiment [1] concerns the target Myc-GST融合蛋白. The experiment is described as follows: ELISA, Myc-GST coated at 5 μg/mL, HRP anti-His second antibody, heat test at 90℃ for 30 min.
Experiment [2] deals with Myc-GST融合蛋白. As to the kind of experiment: ELISA, Myc-GST coated at 5 μg/mL, HRP anti-His second antibody, heat test at 70℃ for 30 min.
The target of experiment [3] is Myc-GST融合蛋白. The experiment is described as follows: ELISA, Myc-GST coated at 5 μg/mL, HRP anti-His second antibody, heat test at 80℃ for 30 min.

B1: 抗c-Myc标签单域重链抗体 (VHH, not shown: small tags and cut ends)
VHH: QLQLVESGGGEVHPGGSLTLSCEVSGINPAYYAIGWFHQSPGKEREGVACISQGGAKTNYADSVKGRFTISRDSAKNTVYLHMNSLQSEDTGSYYCARRRGAYCTESNSAGDYASWGQGTQVTVST
On to B1, for which the OD450 with Myc-GST融合蛋白 [1] was determined as 1.1; in the experiment with Myc-GST融合蛋白 [2], 1.4; with Myc-GST融合蛋白 [3], 1.3.
